Test results published in patent US20230212266A1 (FRED HUTCHINSON CANCER CENTER, published 2023).
Where two headings read alike, the source gives them in different places.

Tests used:
Experiment in all cases: BLI, mAb on anti-human Fc probe, antigen in solution
[1] = target: T1, SARS-CoV-2 receptor binding domain (RBD) (SARS-CoV-2, UniProt P0DTC2 319-591)
[2] = target: T1, SARS-CoV-2 receptor binding domain (RBD); remark: listed apart in the source
[3] = target: T1, SARS-CoV-2 receptor binding domain (RBD); remark: listed apart in the source
[4] = target: T1, SARS-CoV-2 receptor binding domain (RBD); remark: listed apart in the source
[5] = target: T1, SARS-CoV-2 receptor binding domain (RBD); remark: listed apart in the source
[6] = target: T1, SARS-CoV-2 receptor binding domain (RBD); remark: listed apart in the source
[7] = target: T1, SARS-CoV-2 receptor binding domain (RBD); remark: listed apart in the source
[8] = target: T1, SARS-CoV-2 receptor binding domain (RBD); remark: listed apart in the source
[9] = target: T1, SARS-CoV-2 receptor binding domain (RBD); remark: listed apart in the source
[10] = target: T1, SARS-CoV-2 receptor binding domain (RBD); remark: listed apart in the source
[11] = target: T1, SARS-CoV-2 receptor binding domain (RBD); remark: listed apart in the source
[12] = target: T1, SARS-CoV-2 receptor binding domain (RBD); remark: listed apart in the source
[13] = target: T1, SARS-CoV-2 receptor binding domain (RBD); remark: listed apart in the source
[14] = target: T1, SARS-CoV-2 receptor binding domain (RBD); remark: listed apart in the source
[15] = target: T1, SARS-CoV-2 receptor binding domain (RBD); remark: listed apart in the source
[16] = target: T1, SARS-CoV-2 receptor binding domain (RBD); remark: listed apart in the source
[17] = target: T1, SARS-CoV-2 receptor binding domain (RBD); remark: listed apart in the source
[18] = target: T1, SARS-CoV-2 receptor binding domain (RBD); remark: listed apart in the source

B1: CV48 (antibody, V domains shown)
VH: QVQLVQSGAEVKKPGSSVKVSCKASGGTFSSYTINWVRQAPGQGLEWMGRIIPILGIADYAQKFQGRVTITADKSTSTAYMELSSLRSEDTAVYYCARDLVEDTAMVTGAAAGTWGQGTLVTVSS
VL: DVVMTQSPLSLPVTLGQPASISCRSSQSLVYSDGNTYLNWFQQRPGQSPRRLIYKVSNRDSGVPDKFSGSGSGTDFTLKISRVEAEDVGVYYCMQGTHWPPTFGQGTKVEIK
notes: expressed as IgG
- binding result [1]: no binding

B2: CV34 (antibody, V domains shown)
VH: QVQLVESGGGVVQPGRSLRLSCAASGFTFSSYAMHWVRQAPGKGLEWVAVISYDGSNKYYADSVKGRFTISRDNSKNTLYLQMNSLRAEDTAVYYCARSYGGSYYYGMDVWGQGTTVTVSS
VL: SYELTQPHSVSVATAQMARITCGGNNIGSKAVHWYQQKPGQDPVLVIYSDSNRPSGIPERFSGSNPGNTATLTISRIEAGDEADYYCQVWDSSSDHVVFGGGTKLTVL
notes: expressed as IgG
- binding result [2]: no binding

B3: CV2-1 (antibody, V domains shown)
VH: QVQLVESGGGVVQPGRSLRLSCAASGFTFSSYAMHWVRQAPGKGLEWVAVISYDGSNKYYADSVKGRFTISRDNSKNTLYLQMNSLRAEDTAIYYCARPYSGSYYAYFDYWGQGTLVTVSS
VL: EIVMTQSPATLSVSPGERATLSCRASQSVSSNLAWYQQKPGQAPRLLIYGASTRATGIPARFSGSGSGTEFTLTISSLQSEDFAVYYCQQYNNWLALTFGGGTKVEIK
notes: expressed as IgG
- binding result [3]: no binding

B4: CV41 (antibody, V domains shown)
VH: QVQLVESGGGVVQPGRSLRLSCAASGFTFSSYAMHWVRQAPGKGLEWVAVISYDGSNKYYADSVKGRFTISRDNSKNTLYLQMNSLRAEDTAVYYCARTKGGSYFAPFDYWGQGTLVTVSS
VL: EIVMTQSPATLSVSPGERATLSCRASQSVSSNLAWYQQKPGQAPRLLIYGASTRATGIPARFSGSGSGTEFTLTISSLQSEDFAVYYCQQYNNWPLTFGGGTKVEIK
notes: expressed as IgG
- binding result [4]: no binding

B5: CV23 (antibody, V domains shown)
VH: QVQLVQSGAEVKKPGASVKVSCKASGYTFTSYAMHWVRQAPGQRLEWMGWINAGNGNTKYSQKFQGRVTITRDTSASTAYMELSSLRSEDTAVYYCARVWGYCSGGSCYVDAFDIWGQGTMVTVSS
VL: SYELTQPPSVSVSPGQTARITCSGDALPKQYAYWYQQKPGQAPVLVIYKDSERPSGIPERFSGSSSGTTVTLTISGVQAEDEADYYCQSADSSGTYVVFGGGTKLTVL
notes: expressed as IgG
- binding result [5]: no binding

B6: CV6 (antibody, V domains shown)
VH: QVQLVQSGAEVKKPGASVKVSCKVSGYTLTELSMHWVRQAPGKGLEWMGGFDPEDGETIYAQKFQGRVTMTEDTSTDTAYMELSSLRSEDTAVYYCATGPPYCSSTSCEHWFDPWGQGTLVTVSS
VL: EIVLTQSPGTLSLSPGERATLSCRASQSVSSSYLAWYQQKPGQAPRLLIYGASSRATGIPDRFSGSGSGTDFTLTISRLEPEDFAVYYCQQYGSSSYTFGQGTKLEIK
notes: expressed as IgG
- binding result [6]: no binding

B7: CV33 (antibody, V domains shown)
VH: QVQLVQSGAEVKKPGASVKVSCKASGYTFTSYDISWVRQAPGQGLEWMGWISAYNGNTNYAQKLQGRVTMTTDTSTSTAYMELRSLRSDDTAVYYCARDSVAGIYYYYGMDVWGQGTTVTVSS
VL: QSVLTQPPSVSGAPGQRVTISCTGSSSNIGAGYDVHWYQQLPGTAPKLLIYGNSNRPSGVPDRFSGSKSGTSASLAITGLQAEDEADYYCQSYDSSLSGPVVFGGGTKLTVL
notes: expressed as IgG
- binding result [7]: no binding

B8: CV2-2 (antibody, V domains shown)
VH: EVQLLESGGGLAQPGGSLRLSCAASGFTFSSYAMSWVRQAPGKGLEWVSAISGSGGNTYYADSLKGRFTISRDNSKSTLYLQMNSLRAEDTAVYYCAKGPMWQWLVRLSLVGDYWGQGTLVTVSS
VL: SYVLTQPPSVSVAPGQTARITCGGNNIGSKGVHWYQQKPGQAPVLVVFDDSDRPSGIPERFSGSNSGNTATLTISRVEAGDEADYYCQVWDSTSDHPGYVFGTGTKVTVL
notes: expressed as IgG
- binding result [8]: no binding

B9: CV44 (antibody, V domains shown)
VH: QVQLVQSGAEVKKPGASVKVSCKASGYTFTSYYMHWVRQAPGQGLEWMGIINPSGGSTSYAQKFQGRVTMTRDTSTSTVYMELSSLRSEDTAVYYCARDLTSTSSSPYSYYYGMDVWGQGTTVTVSS
VL: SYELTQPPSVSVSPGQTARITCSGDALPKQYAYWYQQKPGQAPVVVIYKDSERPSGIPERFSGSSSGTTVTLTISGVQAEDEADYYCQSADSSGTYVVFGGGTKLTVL
notes: expressed as IgG
- binding result [9]: no binding

B10: CV39 (antibody, V domains shown)
VH: QVQLVESGGGVVQPGRSMRLSCAASGFNLSSYAMHWVRQASGKGLEWVSLISYDGSIKYYADSVKGRFTVSGDNSKNTLFLQMSSLRADDSALYYCVRGGVSGPNAFDIWGQGTTVTVSS
VL: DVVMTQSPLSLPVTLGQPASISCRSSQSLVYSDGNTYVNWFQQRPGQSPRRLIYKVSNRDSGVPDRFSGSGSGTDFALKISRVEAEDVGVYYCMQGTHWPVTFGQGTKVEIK
notes: expressed as IgG
- binding result [10]: no binding

B11: CV40 (antibody, V domains shown)
VH: QVQLVQSGAEVKKPGASVKVSCKASGYTFSSYGISWVRQDPGQGLEWMGWISAYNGNTNYAQKLQGRVTMTTDTSTSTAYMELRSLRSDDTAVYYCARVGLWWLGHPDAFDIWGQGTMVTVSS
VL: DIQMTQSPSSLSASVGDRVTITCRASQGIRNDLGWYQQKPGKAPKRLIYAASSLQSGVPSRFSGSGSGTEFTLTISSLQPEDFATYYCLQHNSYPLTFGGGTKVEIK
notes: expressed as IgG
- binding result [11]: no binding

B12: CV2-3 (antibody, V domains shown)
VH: QLQLQESGPGLVKPSETLSLTCTVSGGSISSSTYYWGWIRQPPGKGLEWIGNIYYTGSTYYNPSLKSRVTISVDTSKNHFSLRLSSVTAADTAVYYCARHNRFWSEDTPFDPWGQGTLVTVSS
VL: DIQMTQSPSSLSASVGDRVTITCRASQGIRNDLGWYQQKPGKAPKRLIYAASSLQSGVPSRFSGSGSGTEFTLTISSLQPEDFATYYCLQHNSYPLTFGGGTKVEIK
notes: expressed as IgG
- binding result [12]: no binding

B13: CV47 (antibody, V domains shown)
VH: QVQLVQSGAEVKKPGASVKVSCKASGYTFTSYGISWVRQAPGQGLEWMGWISAYSGNTNYAQKLQGRVTMTTDTSTSTAYMEVRSLRSDDTAVYYCARVGLWWLGHPDVFDIWGQGTMVTVSS
VL: DIQMTQSPSSLSASVGDRVTITCRASQGIRNDLGWYQQKPGKAPKRLIYAASSLQSGVPSRFSGSGSGTEFTLTISSLQPEDFATYYCLQHNSYPLTFGGGTKVEIK
notes: expressed as IgG
- binding result [13]: no binding

B14: CV42 (antibody, V domains shown)
VH: QVQLVQSGAEVKKPGASVKVSCKASGYTFTSYGISWVRQAPGQGLEWMGWISAYNGNTNYAQKVQGRVTMTTDTSTSTAYMELRSLRSDDTAVYYCARDRGYAATFGVFDYWGQGTLVTVSS
VL: DIQMTQSPSSLSASVGDRVTITCRASQSISSYLNWYQQKPGKAPKFLIYAASSLQSGVPSRFSGSGSGTDFTLTISSLQPEDFATYYCQQTYITAFTFGPGTKVDIK
notes: expressed as IgG
- binding result [14]: no binding

B15: CV25 (antibody, V domains shown)
VH: QVQLQESGPGLVKPSQTLSLTCTVSGGSISSGDYYWSWIRQPPGKGLEWIGYIYYSGSTYYNPSLKSRVTISVDTSKNQFSLKLSSVTAADTAVYYCARDHHYDFWSGYSSYYYYGMDVWGQGTTVTVSS
VL: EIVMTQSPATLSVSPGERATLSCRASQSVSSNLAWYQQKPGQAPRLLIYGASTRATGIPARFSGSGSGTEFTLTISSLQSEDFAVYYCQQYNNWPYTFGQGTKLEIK
- binding result [15]: no binding

B16: CV37 (antibody, V domains shown)
VH: QVQLVQSGAEVKKPGASVKVSCKASGYTFTSYGISWVRQAPGQGLEWMGWISAYNGNTNYAQKLQGRVTMTTDTSTSTAYMELRSLRSDDTAVYYCARARVAYDYIWGSYRYKAFDYWGQGTLVTVSS
VL: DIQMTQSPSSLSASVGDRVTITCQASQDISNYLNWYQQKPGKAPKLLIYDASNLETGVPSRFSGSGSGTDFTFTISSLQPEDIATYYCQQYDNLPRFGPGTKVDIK
notes: expressed as IgG
- binding result [16]: no binding

B17: CV32 (antibody, V domains shown)
VH: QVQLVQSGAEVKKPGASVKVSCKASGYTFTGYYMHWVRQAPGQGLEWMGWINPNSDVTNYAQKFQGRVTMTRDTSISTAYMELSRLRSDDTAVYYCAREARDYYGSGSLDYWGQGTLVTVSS
VL: QSVLTQPPSVSAAPGQKVTISCSGSSSNIGNNYVSWYQQLPGTAPKLLIYDNNKRPSGIPDRFSGSKSGTSATLGITGLQTGDEADYYCGTWDSSLSAVVFGGGTKLTVL
notes: expressed as IgG
- binding result [17]: no binding

B18: CV36 (antibody, V domains shown)
VH: QVQLVQSGAEVKKPGASVKVSCKASGYTFTGYYMHWVRQAPGQGLEWMGWINPNSGGTNYVQKFQGRVTMTRDTSISTAYMELNRLRSDDTAVYFCARDLTTTAGTDYYYGMDVWGQGTTVTVSS
VL: SYELTQPPSVSVSPGQTARITCSGDALPKQYAYWYQQKPGQAPVLVIYKDTERPSGIPERFSGSSSGTTVTLTISGVQAEDEADYYCQSADSSGTYMIFGTGTKVTVL
notes: expressed as IgG
- binding result [18]: no binding
